In experiment [1] the target is SNAP-25 peptide comprising amino acids 134-197 of SEQ ID NO: 5 (human). Briefly: SPR, BIAcore 3000, peptide on CM5 chip, antibody as analyte, 1:1 model. On the technique in general: SPR reads the build-up and loss of mass on a sensor chip optically.
Experiment [2] has as its target SNAP-25 peptide comprising amino acids 134-206 of SEQ ID NO: 5 (human). The experiment is described as above.

The text below walks through data of patent US20100233802A1.

By Kd is commonly meant a measure of binding affinity in units of concentration. Read a low Kd as a tighter complex. The koff is a measure of how fast the partners let go of each other. A higher koff goes with fast dissociation. Broadly, the kon is the rate constant with which the complex forms. Lower therefore signals slower complex formation.

In the case of “mouse α-SNAP-25 monoclonal antibody MC-6053 (Research & Diagnostic Antibodies)”, in experiment [1], the dissociation constant Kd came out at 0.508 nM, the koff worked out at 0.00118 s⁻¹ and the kon turned out to be 2.32e+06 M⁻¹ s⁻¹. For the same substance, in experiment [2], the Kd was 0.24 µM and the koff was 2.56e-05 s⁻¹.
“mouse α-SNAP-25 monoclonal antibody MC-6050 (Research & Diagnostic Antibodies)”: in experiment [1], the Kd was found to be 0.497 nM, the off-rate (koff) was determined as 0.000882 s⁻¹ and the kon was 1.78e+06 M⁻¹ s⁻¹. In experiment [2], this substance displayed a dissociation constant (Kd) of 19.8 µM, an off-rate (koff) of 0.00607 s⁻¹ and a kon of 306 M⁻¹ s⁻¹.
